# Data taken from patent publication US20150283262A1 (AstraZeneca / MedImmune, published 2015).
# Read-outs that look alike come from different tables or passages of the source.
# T1: CD19 on CD19 +ve cell lines (Daudi, Ramos, WSU-DLCL2) (human, UniProt P15391 20-556)
# T1 sequence (looked up): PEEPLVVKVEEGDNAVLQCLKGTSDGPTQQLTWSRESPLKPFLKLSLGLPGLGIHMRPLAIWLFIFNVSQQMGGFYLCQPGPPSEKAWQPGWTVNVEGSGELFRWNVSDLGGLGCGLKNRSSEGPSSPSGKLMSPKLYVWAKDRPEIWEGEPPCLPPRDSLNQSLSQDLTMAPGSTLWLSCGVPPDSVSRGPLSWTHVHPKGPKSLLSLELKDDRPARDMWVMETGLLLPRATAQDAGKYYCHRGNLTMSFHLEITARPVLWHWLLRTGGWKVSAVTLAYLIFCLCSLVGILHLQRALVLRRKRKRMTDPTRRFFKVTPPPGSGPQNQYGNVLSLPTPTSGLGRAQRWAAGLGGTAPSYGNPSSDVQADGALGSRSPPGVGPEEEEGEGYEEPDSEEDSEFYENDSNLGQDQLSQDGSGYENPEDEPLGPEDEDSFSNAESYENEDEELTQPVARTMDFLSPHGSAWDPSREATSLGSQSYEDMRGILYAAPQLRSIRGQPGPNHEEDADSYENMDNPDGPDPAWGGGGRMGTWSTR
# B1: RB4v1.2-A (anti-CD19 antibody RB4v1.2 conjugated to PBD drug linker A) (antibody, DAR 2.2, V domains shown)
# VH: QVQLVQPGAEVVKPGASVKLSCKTSGYTFTSNWMHWVKQAPGQGLEWIGEIDPSDSYTNYNQNFQGKAKLTVDKSTSTAYMEVSSLRSDDTAVYYCARGSNPYYYAMDYWGQGTSVTVS
# VL: EIVLTQSPAIMSASPGERVTMTCSASSGVNYMHWYQQKPGTSPRRWIYDTSKLASGVPARFSGSGSGTSYSLTISSMEPEDAATYYCHQRGSYTFGGGTKLEIK
# modifications: PBD dimer drug linker A attached to cysteine thiols after TCEP reduction; positions not given; DAR 2.2 for the whole ADC
# B2: RB4v1.2-E (anti-CD19 antibody RB4v1.2 conjugated to PBD drug linker E) (antibody, DAR 1.93, V domains shown)
# VH: B1 VH
# VL: B1 VL
# modifications: PBD dimer drug linker E attached to cysteine thiols after TCEP reduction; positions not given; DAR 1.93 for the whole ADC
# B3: RB4v1.2-D (anti-CD19 antibody RB4v1.2 conjugated to PBD drug linker D) (antibody, DAR 2.18, V domains shown)
# VH: B1 VH
# VL: B1 VL
# modifications: PBD dimer drug linker D (iodoacetamide) attached to cysteine thiols after TCEP reduction; positions not given; DAR 2.18 for the whole ADC
# Assays:
# Assay in all cases: cell-based or functional assay
# [1] = target: T1, CD19 on CD19 +ve cell lines (Daudi, …)
# [2] = target: T1, CD19 on CD19 +ve cell lines (Daudi, …); remark: listed apart in the source
# [3] = target: T1, CD19 on CD19 +ve cell lines (Daudi, …); remark: listed apart in the source
binder,measurement,setting,value
B1,"EC50 (µg/mL), in vitro cytotoxicity, Alamar Blue cell survival, Daudi cells",[1],0.00112 µg/mL
same,"EC50 (µg/mL), in vitro cytotoxicity, Alamar Blue cell survival, Ramos cells",[1],0.00102 µg/mL
same,"EC50 (µg/mL), in vitro cytotoxicity, Alamar Blue cell survival, WSU-DLCL2 cells",[1],0.117 µg/mL
B2,"EC50 (µg/mL), in vitro cytotoxicity, Alamar Blue cell survival, Daudi cells",[2],0.00122 µg/mL
same,"EC50 (µg/mL), in vitro cytotoxicity, Alamar Blue cell survival, Ramos cells",[2],0.00147 µg/mL
same,"EC50 (µg/mL), in vitro cytotoxicity, Alamar Blue cell survival, WSU-DLCL2 cells",[2],0.031 µg/mL
B3,"EC50 (µg/mL), in vitro cytotoxicity, Alamar Blue cell survival, Daudi cells",[3],0.00102 µg/mL
same,"EC50 (µg/mL), in vitro cytotoxicity, Alamar Blue cell survival, Ramos cells",[3],0.000798 µg/mL
same,"EC50 (µg/mL), in vitro cytotoxicity, Alamar Blue cell survival, WSU-DLCL2 cells",[3],0.0219 µg/mL
